First the molecules themselves.
B1: B8^V3 (VHH)
VHH: EVQLVESGGGVVQPGGSLRLSCAASGEIFSINFMRWYREAPGKQREWVAGFTRDGSTNYPDSAKGRFTISRDNAKNTVYLQIDSLKPEDTAVYYCYMLDTWGQGTQVTVSS
B2: B8^h1 (VHH)
VHH: B1 VHH with E39Q, Q44G, R45L, A63V, I82M, D83N, K86R
B3: VHH A1 (C5^V1) (VHH)
VHH: EVQLVESGGGVVQPGGSLKLSCVASGADFSINFIRWYRQAPGKQREFVAGFTATGNTNYADSMKGRFTISRDNTKNAVYLQIDSLKPEDTAVYYCYMLDKWGQGTQVTVSS
B4: VHH A13 (C5^V13) (VHH)
VHH: B3 VHH with A27T, T52S
B5: VHH A15 (C5^V15) (VHH)
VHH: B3 VHH with A27T, Y96F
B6: C5^h18 (VHH)
VHH: B3 VHH with A27T, Q44G, R45L, M63V, T74A, A77T, V78L, I82M, D83N, K86R
B7: C5^h19 (VHH)
VHH: B3 VHH with K19R, V23A, A27T, M63V, T74A, A77T, V78L, I82M, D83N, K86R
B8: C5^V27 (VHH)
VHH: B3 VHH with F33Y
B9: B8h1-siSOD1m (VHH)
VHH: B1 VHH with E39Q, Q44G, R45L, A63V, I82M, D83N, K86R
modifications: chain 1 pos 125: Gln of the LQR Q-tag carrying the transglutaminase-installed azido linker clicked to the 3' end of the sense strand of the chemically modified siSOD1m duplex (SEQ ID NOs 465/466), written Q
notes: Member of the group m173
B10: B8-siSOD1m (VHH)
VHH: B1 VHH with E39Q
modifications: conjugated to the siSOD1m siRNA duplex through a linker; site and tag not given for this conjugate ; VHH conjugated through a C-terminal tag and a stable click linker to the 3' end of the sense strand of the siSOD1m siRNA duplex (SEQ ID NO 465/466). The letters cannot carry this.
notes: Member of the group m173; not shown: C-terminal tag/linker that carries the siRNA
B11: C5-ΔHis-siSOD1m (VHH)
VHH: B3 VHH with A27T
modifications: conjugated to the siSOD1m siRNA duplex through a linker; site and tag not given for this conjugate ; Conjugated at a C-terminal tag (not given) through a linker to the chemically modified siSOD1m duplex (SEQ ID NOs 465/466).
notes: Member of the group m173; also called VHH-deltaHis-siSOD1m wherein VHH is C5; not shown: The C-terminal conjugation tag of the 'ΔHis' form, which the text never defines
B12: C5-siSOD1m (VHH)
VHH: B3 VHH with A27T
modifications: chain 1 pos 125: Gln of the LQR Q-tag carrying the transglutaminase-installed azido linker clicked to the 3' end of the sense strand of the chemically modified siSOD1m duplex (SEQ ID NOs 465/466, no 5'VP), written Q
notes: Member of the group m173; siRNA without 5'VP, so not the same as m166
B13: C5-Thiol-Mal-siSOD1m (VHH)
VHH: B3 VHH with A27T
modifications: chain 1 pos 117: free Cys of the tag coupled by thiol-maleimide chemistry to the maleimide-functionalised siSOD1m duplex (SEQ ID NOs 465/466), written C
notes: Member of the group m173; also called VHH-thiol-Mal-siSOD1m wherein VHH is C5
B14: C5V7-siSOD1m (VHH)
VHH: B3 VHH with A27T, L98A
modifications: conjugated to the siSOD1m siRNA duplex through a linker; site and tag not given for this conjugate ; VHH conjugated through a C-terminal tag and a stable click linker to the 3' end of the sense strand of the siSOD1m siRNA duplex (SEQ ID NO 465/466). The letters cannot carry this.
notes: as for B10
B15: C5h18-siSOD1m (VHH)
VHH: B3 VHH with A27T, Q44G, R45L, M63V, T74A, A77T, V78L, I82M, D83N, K86R
modifications: conjugated to the siSOD1m siRNA duplex through a linker; site and tag not given for this conjugate ; VHH conjugated through a C-terminal tag and a stable click linker to the 3' end of the sense strand of the siSOD1m siRNA duplex (SEQ ID NO 465/466). The letters cannot carry this.
notes: as for B10
B16: C5V1-siSOD1m (VHH)
VHH: B3 VHH
modifications: conjugated to the siSOD1m siRNA duplex through a linker; site and tag not given for this conjugate ; VHH conjugated through a C-terminal tag and a stable click linker to the 3' end of the sense strand of the siSOD1m siRNA duplex (SEQ ID NO 465/466). The letters cannot carry this.
notes: as for B10
B17: C5V13-siSOD1m (VHH)
VHH: B3 VHH with A27T, T52S
modifications: conjugated to the siSOD1m siRNA duplex through a linker; site and tag not given for this conjugate ; VHH conjugated through a C-terminal tag and a stable click linker to the 3' end of the sense strand of the siSOD1m siRNA duplex (SEQ ID NO 465/466). The letters cannot carry this.
notes: as for B10
B18: C5h19-siSOD1m (VHH)
VHH: B3 VHH with K19R, V23A, A27T, M63V, T74A, A77T, V78L, I82M, D83N, K86R
modifications: conjugated to the siSOD1m siRNA duplex through a linker; site and tag not given for this conjugate ; VHH conjugated through a C-terminal tag and a stable click linker to the 3' end of the sense strand of the siSOD1m siRNA duplex (SEQ ID NO 465/466). The letters cannot carry this.
notes: as for B10

Substitutions are numbered along the chain they refer to.

The values that follow come from patent US20230414780A1 (VECT HORUS, published 2023).

One may read the koff as a measure of how fast the partners let go of each other. In general, kon refers to the second-order rate constant of association.

For the first test, the target named is T1, human TfR ectodomain fused to a mouse IgG1 Fc fragment (human, UniProt P02786 89-760).
T1 construct: extracellular domain; ectodomain fused to the N-terminal end of the Fc, made in-house; not shown: mouse IgG1 Fc fragment
T1 sequence (P02786 89-760): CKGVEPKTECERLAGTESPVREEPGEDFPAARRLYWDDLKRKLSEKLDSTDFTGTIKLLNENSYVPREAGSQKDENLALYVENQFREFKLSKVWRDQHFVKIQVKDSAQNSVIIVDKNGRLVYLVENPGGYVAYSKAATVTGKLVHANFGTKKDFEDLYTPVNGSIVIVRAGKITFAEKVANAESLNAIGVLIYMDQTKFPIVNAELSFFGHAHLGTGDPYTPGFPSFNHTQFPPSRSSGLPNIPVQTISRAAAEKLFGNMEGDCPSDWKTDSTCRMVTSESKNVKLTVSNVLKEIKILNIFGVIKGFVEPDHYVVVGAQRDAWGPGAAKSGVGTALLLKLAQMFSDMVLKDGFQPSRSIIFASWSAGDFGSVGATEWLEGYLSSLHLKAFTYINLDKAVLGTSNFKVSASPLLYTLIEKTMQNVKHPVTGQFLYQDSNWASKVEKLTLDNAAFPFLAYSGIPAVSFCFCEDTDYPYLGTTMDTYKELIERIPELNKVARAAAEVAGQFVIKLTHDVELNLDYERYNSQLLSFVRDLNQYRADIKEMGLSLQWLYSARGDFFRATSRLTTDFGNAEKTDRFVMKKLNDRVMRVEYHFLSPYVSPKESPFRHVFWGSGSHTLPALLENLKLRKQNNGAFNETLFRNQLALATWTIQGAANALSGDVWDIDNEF
The experiment in a line: SPR, kinetic. An outline of the steps:
(§1)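 TfR–mouse Fc fusions, produced in-house, captured on HC 1500M or CM5 chips either directly or via immobilized anti-mouse IgG. VHHs injected in single-cycle or multiple-cycle kinetic mode on Biacore T200.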
(In SPR one partner is held on a chip, and binding of the other changes the refractive index at the surface.)
In turn, B1 yielded a Kd of 0.505 nM, a koff of 3.38e-05 s⁻¹ and a kon of 66900 M⁻¹ s⁻¹.
Regarding B2, the Kd amounted to 0.212 nM, the off-rate (koff) is 9.49e-05 s⁻¹ and the on-rate (kon) was determined as 444000 M⁻¹ s⁻¹.
For B3, in that order: 0.876 nM, 0.000487 s⁻¹ and 555000 M⁻¹ s⁻¹.
With B4, the Kd amounted to 0.357 nM, the off-rate constant (koff) is 0.000392 s⁻¹ and the kon was determined as 1.14e+06 M⁻¹ s⁻¹.
Take B5: the Kd stood at 0.252 nM, the koff stood at 0.000176 s⁻¹ and the kon stood at 700000 M⁻¹ s⁻¹.
Take B6: the Kd amounted to 30.9 nM, the koff amounted to 0.013 s⁻¹ and the kon is 462000 M⁻¹ s⁻¹.
The molecule B7 came in with a Kd of 16.3 nM, a koff of 0.00904 s⁻¹ and a kon of 624000 M⁻¹ s⁻¹.

For another test, the target named is T2, mouse TfR ectodomain fused to a mouse IgG1 Fc fragment (mouse, UniProt Q62351 89-763).
T2 construct: extracellular domain; not shown: mouse IgG1 Fc fragment
T2 sequence (Q62351 89-763): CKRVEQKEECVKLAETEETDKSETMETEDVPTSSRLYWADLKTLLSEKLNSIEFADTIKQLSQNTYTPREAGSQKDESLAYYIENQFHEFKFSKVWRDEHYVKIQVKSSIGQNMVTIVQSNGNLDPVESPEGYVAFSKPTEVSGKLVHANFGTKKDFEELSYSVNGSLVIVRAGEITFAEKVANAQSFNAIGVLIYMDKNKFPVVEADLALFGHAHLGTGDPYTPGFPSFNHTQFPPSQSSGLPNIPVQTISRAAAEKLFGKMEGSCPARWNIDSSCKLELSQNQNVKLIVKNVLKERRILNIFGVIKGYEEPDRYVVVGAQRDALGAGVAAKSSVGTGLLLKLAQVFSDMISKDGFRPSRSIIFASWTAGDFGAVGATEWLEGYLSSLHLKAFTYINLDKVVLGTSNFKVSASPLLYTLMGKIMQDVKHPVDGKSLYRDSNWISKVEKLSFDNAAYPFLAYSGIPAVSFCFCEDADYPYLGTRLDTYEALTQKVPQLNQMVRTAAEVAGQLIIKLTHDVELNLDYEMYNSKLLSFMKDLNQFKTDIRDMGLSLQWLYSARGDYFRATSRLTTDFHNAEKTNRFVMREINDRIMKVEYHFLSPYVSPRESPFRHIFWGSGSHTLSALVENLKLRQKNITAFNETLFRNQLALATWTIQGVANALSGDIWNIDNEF
Nature of the test: SPR, kinetic. An outline of the steps: as §1
Turning to B1, the Kd was found to be 193 nM, the koff was determined as 0.0343 s⁻¹ and the kon was found to be 178000 M⁻¹ s⁻¹.
B8 showed a Kd of 207 nM, a koff of 0.102 s⁻¹ and a kon of 493000 M⁻¹ s⁻¹.
On to B3, for which the Kd turned out to be 244 nM, the koff came to 0.12 s⁻¹ and the association rate constant (kon) was 546000 M⁻¹ s⁻¹.
On the same counts, the results for B4 are 78.9 nM, 0.0182 s⁻¹ and 231000 M⁻¹ s⁻¹.
As to B5, the Kd is 70.6 nM, the koff stood at 0.0563 s⁻¹ and the kon turned out to be 797000 M⁻¹ s⁻¹.
B6: the Kd worked out at 336 nM, the koff came to 0.235 s⁻¹ and the kon came out at 816000 M⁻¹ s⁻¹.
In the case of B7, the Kd was found to be 643 nM, the koff was 0.00825 s⁻¹ and the kon is 12800 M⁻¹ s⁻¹.

In a further test the target is T3, rhesus monkey TfR ectodomain fused to a mouse IgG1 Fc fragment (rhesus monkey, UniProt I0FKY7 89-760).
T3 construct: extracellular domain; not shown: mouse IgG1 Fc fragment
Nature of the test: SPR, kinetic. In outline: as §1
In the case of B8, the Kd is 83.9 nM, the koff came out at 0.0278 s⁻¹ and the kon is 332000 M⁻¹ s⁻¹.

Another test deals with T1, human TfR ectodomain fused to a mouse …. The experiment in a line: SPR, at equilibrium. In outline: as §1
B6 registered a Kd of 27.3 nM.
As for B7, the Kd was 13.2 nM.

The next test addresses T2, mouse TfR ectodomain fused to a mouse …. The experiment in a line: SPR, at equilibrium. An outline of the steps: as §1
With B1, the Kd was 206 nM.
Regarding B8, the Kd was 379 nM.
The molecule B3 had a Kd of 228 nM.
The molecule B4 had a Kd of 113 nM.
B5 yielded a Kd of 61.1 nM.
Molecule B6 registered a Kd of 300 nM.
As for B7, the Kd came out at 2750 nM.

For a further test, the target named is T4, human transferrin receptor (hTfR) fused to EGFP, on CHO cells (human, UniProt P02786 1-760).
T4 construct: whole, on cells; also called human TfR; CHO-hTfR-EGFP; not shown: EGFP from pEGFP-C1 vector, fused to the N-terminal (intracellular) end of hTfR
T4 sequence (P02786 whole entry, the tested form may be a part): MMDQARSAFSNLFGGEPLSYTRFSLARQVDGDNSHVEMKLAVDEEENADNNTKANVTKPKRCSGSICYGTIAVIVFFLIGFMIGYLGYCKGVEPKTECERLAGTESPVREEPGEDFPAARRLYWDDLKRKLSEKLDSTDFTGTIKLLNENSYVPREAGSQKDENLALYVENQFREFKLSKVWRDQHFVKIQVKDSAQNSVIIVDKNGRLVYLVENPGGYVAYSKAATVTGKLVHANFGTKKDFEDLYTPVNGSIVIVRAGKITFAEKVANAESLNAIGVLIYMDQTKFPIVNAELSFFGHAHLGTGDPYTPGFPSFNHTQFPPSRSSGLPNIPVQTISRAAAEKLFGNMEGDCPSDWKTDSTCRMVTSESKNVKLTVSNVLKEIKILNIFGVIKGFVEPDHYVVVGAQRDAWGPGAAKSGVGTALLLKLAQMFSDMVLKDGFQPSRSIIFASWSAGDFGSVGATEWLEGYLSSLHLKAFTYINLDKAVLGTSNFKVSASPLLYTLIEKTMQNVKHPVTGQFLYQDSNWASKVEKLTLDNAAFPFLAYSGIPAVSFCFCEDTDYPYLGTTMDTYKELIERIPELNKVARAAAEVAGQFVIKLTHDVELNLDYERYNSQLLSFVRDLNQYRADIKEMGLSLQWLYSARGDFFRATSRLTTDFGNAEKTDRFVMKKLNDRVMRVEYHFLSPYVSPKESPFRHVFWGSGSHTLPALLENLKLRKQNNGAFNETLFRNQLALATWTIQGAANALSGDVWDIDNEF
The experiment in a line: apparent Kd, flow cytometry, CHO cells. In outline:
(§2)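 CHO cells expressing TfR-EGFP fusions, blocked in PBS/BSA 2%, then incubated with increasing VHH concentrations for 1 hr at 4° C. Bound VHH detected via anti-6His antibody and Alexa647 secondary, cells PFA-fixed, read by flow cytometry. Apparent Kd from nonlinear fit.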
For the molecule B1, the Kd was 36 nM.
As to B2, the Kd amounted to 4.1 nM.
Still for that read-out and setting: the same measure for B8: 3.1 nM; for B3: 3.2 nM; for B4: 3.5 nM.
Regarding B5, the Kd came to 3.7 nM.
Regarding B6, the Kd turned out to be 11 nM.
For the molecule B7, the Kd was 5.4 nM.

For the next test, the target named is T5, mouse transferrin receptor (mTfR) fused to EGFP, on CHO cells (mouse, UniProt Q62351 1-763).
T5 construct: whole, on cells; also called mouse TfR; CHO-mTfR-EGFP; not shown: EGFP
T5 sequence (Q62351 whole entry, the tested form may be a part): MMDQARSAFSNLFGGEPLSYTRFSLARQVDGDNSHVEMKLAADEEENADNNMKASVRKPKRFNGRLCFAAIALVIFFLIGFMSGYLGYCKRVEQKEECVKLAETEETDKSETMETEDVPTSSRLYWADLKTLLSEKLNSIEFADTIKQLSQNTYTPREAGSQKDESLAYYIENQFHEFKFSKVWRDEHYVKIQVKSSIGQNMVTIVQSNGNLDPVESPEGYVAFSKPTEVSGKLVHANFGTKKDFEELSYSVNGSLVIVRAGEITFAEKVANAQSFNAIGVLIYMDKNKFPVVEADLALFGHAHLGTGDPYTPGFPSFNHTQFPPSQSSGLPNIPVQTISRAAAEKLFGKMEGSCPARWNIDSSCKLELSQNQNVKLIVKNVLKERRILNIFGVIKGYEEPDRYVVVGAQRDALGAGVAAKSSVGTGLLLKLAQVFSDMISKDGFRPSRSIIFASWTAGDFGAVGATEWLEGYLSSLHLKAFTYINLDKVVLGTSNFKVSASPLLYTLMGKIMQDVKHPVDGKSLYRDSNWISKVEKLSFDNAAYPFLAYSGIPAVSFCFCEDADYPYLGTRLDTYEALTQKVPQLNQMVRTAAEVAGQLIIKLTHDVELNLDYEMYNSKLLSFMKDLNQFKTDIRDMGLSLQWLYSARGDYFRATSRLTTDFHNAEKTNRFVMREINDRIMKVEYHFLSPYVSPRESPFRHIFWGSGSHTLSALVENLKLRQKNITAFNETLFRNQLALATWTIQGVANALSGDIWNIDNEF
Nature of the test: apparent Kd, flow cytometry, CHO cells. An outline of the steps:
as §2
As to B1, the Kd stood at 52 nM.
As for B2, the Kd is 2.8 nM.
Turning to B8, the Kd was 197 nM.
Same read-out and setting: the same measure for B3: 259 nM; for B4: 187 nM.
In the case of B5, the Kd came to 207 nM.
With B6, the Kd was 834 nM.
For B7, the Kd amounted to 1030 nM.

The next test addresses T6, rhesus monkey transferrin receptor (rhTfR) fused to EGFP, on CHO cells (rhesus monkey).
T6 construct: whole, on cells; also called rhesus monkey TfR
The experiment in a line: apparent Kd, flow cytometry, CHO cells. An outline of the steps: as §2
Take B1: the Kd is 19 nM.
Same read-out and setting: the same measure for B2: 1.9 nM; for B8: 178 nM; for B3: 13 nM.
Consider B4, for which the Kd was 28 nM.
The same measure, in the same setting: the same measure for B5: 10 nM.
B6: the Kd turned out to be 957 nM.
Consider B7, for which the Kd was 521 nM.

In the next test the target is T7, murine TfR expressed by murine neuroblastoma Neuro-2a cells (mouse, UniProt Q62351 1-763).
T7 construct: whole, on cells; also called mTfR (N2a cells)
T7 sequence (Q62351 whole entry): as the sequence (Q62351 whole entry, the tested form may be a part) above
The experiment in a line: competition with the fluorescent reference VHH on Neuro-2a cells as in FIG. 25; Ki/app on mTfR. Here is the method: (§3) The binding of VHH-Oligo and VHH-hFc-Oligo conjugates to mTfR was evaluated using a competition assay on living cells expressing the receptor of interest, namely murine neuroblastoma Neuro-2a cells (N2a). N2a cells were grown in Dulbecco's Modified Eagle Medium (DMEM) GlutaMAX supplemented with 10% v/v FBS in 5% CO₂ at 37° C. Cells were seeded two days before experiments in 96-well plates at a density of 50.000 cells/well. […] Resuspended cells were transferred in a 96-deepwell plate (V-bottom) containing 1% fetal bovine serum (FBS)/0.02% sodium azide in phosphate-buffered saline (PBS) and then centrifuged for 5 min at 2000 rpm at 4° C. After removing the supernatant, 5 mM EDTA in D-PBS and 4% paraformaldehyde (PFA) (v/v 1:1) were added into wells to fix cells for 15 min at room temperature. PFA was removed by centrifugation (5 min, 3000 rpm, 4° C.) and cells were resuspended with 5 mM EDTA in D-PBS. Then the cellular A680-associated fluorescence signal was quantified using an Attune™ NxT flow cytometer (Thermo Fisher Scientific) equipped with Attune™ NxT v3.1.2. Experimental data (experimental triplicates) were fitted with GraphPad Prism® software using a nonlinear fit to determine the apparent Ki inhibition constants.
In turn, B9 gave a Ki of 76.1 nM.
The molecule B10 yielded a Ki of 48.8 nM.
For B11, the Ki is 137 nM.
B12 gave a Ki of 161 nM.
B13: the Ki stood at 164 nM.
B14 showed a Ki of 10100 nM.
In the case of B15, the Ki is 1070 nM.
Molecule B16 showed a Ki of 224 nM.
In the case of B17, the Ki is 512 nM.
Molecule B18 returned a Ki of 2630 nM.

For the next test, the target named is T7, murine TfR expressed by murine …. Nature of the test: competition with the fluorescent reference VHH on Neuro-2a cells as in FIG. 25; Ki/app on mTfR, free VHH. The method, then: as §3
B2 showed a Ki of 43 nM.
Molecule B3 returned a Ki of 834 nM.
The same measure, in the same setting: the same measure for B4: 1320 nM; for B6: 1480 nM; for B7: 7600 nM.
